Measured values reported in PMC8094116.

What was measured:
[1] = molecular target: mEGFP–Daple FL ΔCT (mouse Daple lacking the CT domain) (mouse); experiment: single-molecule photobleaching steps and spot intensities
[2] = molecular target: mEGFP–Daple NT (N-terminal domain of mouse Daple) (mouse); experiment: as above
[3] = molecular target: mEGFP–Daple FL (full-length mouse Daple, mEGFP(A206K)-Daple-Flag) (mouse) (UniProt Q6VGS5); experiment: as above
[4] = molecular target: Microtubules polymerised from tubulin protein (T240; Cytoskeleton), paclitaxel-stabilised (UniProt P02550); experiment: co-sedimentation

mEGFP–Daple FL ΔCT (mouse Daple lacking the CT domain) (domain or fragment)
stoichiometry N [1]: 2

mEGFP–Daple NT (N-terminal domain of mouse Daple) (domain or fragment)
stoichiometry N [2]: 2

mEGFP–Daple FL (full-length mouse Daple, mEGFP(A206K)-Daple-Flag), Q6VGS5 1-2009
stoichiometry N [3]: 2

mEGFP–Daple FL (full-length mouse Daple, mEGFP(A206K)-Daple-Flag) (from UniProt Q6VGS5 1-2009) (natural protein)
Kd [4]: 1.46 µM
